The text below walks through data of patent US20260234255A1 (Genmab, published 2026).

As a reminder, the EC50 (read off the curve) is the concentration that produces a half-maximal response.

In assay [1] the target is T1, cynomolgus monkey (Macaca fascicularis) CD30 (cynomolgus monkey, UniProt P28908 19-595 (human entry)).
T1 construct: also called mfCD30
T1 chain: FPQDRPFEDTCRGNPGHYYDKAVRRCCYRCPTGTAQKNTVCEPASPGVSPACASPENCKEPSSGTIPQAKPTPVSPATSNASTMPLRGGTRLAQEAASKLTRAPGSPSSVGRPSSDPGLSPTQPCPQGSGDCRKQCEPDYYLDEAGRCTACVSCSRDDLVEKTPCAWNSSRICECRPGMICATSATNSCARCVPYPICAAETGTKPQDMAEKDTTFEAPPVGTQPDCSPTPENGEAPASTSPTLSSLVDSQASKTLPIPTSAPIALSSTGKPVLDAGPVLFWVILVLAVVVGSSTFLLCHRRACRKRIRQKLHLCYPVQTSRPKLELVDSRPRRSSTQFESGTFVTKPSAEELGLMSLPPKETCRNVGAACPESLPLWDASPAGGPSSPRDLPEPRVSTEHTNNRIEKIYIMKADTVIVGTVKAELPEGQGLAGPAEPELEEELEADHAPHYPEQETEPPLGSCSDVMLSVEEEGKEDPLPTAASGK
Briefly: flow cytometry, HEK293 cells transfected with mfCD30. Here is the method: Cells (3×10⁴ cells/well) were incubated in polystyrene 96-well round-bottom plates (Thermo Scientific, cat. no. 163320) with serial dilutions of antibodies (ranging from 0.0002 to 50 μg/mL in 4-fold dilution steps) in 50 μL staining buffer at 4° C. for 30 min. Experiments were performed in technical duplicate. After washing twice in staining buffer, cells were incubated in 50 μL secondary antibody at 4° C. for 30 min. As a secondary antibody, R-PE-conjugated goat-anti-human IgG (Jackson ImmunoResearch, UK; cat. no. 109⁻¹¹⁶-098) diluted 1:200 in staining buffer was used. Cells were washed twice in staining buffer, resuspended in 30 μL staining buffer containing 0.4% EDTA and the ToPro-3 viability marker (Invitrogen, cat. no. T3605) diluted 1:10,000. Cells were analyzed on an iQue Screener (Intellicyt Corporation, USA). Binding curves were analyzed using non-linear regression (sigmoidal dose-response with variable slope) using GraphPad Prism V9.0.0 software (GraphPad Software, San Diego, CA, USA).
For orientation: Flow cytometry measures light scatter and fluorescence of single cells or particles in a stream.

In assay [2] the target is T2, human CD30 (human, UniProt P28908 19-595).
T2 construct: also called huCD30; TNFRSF8
T2 sequence: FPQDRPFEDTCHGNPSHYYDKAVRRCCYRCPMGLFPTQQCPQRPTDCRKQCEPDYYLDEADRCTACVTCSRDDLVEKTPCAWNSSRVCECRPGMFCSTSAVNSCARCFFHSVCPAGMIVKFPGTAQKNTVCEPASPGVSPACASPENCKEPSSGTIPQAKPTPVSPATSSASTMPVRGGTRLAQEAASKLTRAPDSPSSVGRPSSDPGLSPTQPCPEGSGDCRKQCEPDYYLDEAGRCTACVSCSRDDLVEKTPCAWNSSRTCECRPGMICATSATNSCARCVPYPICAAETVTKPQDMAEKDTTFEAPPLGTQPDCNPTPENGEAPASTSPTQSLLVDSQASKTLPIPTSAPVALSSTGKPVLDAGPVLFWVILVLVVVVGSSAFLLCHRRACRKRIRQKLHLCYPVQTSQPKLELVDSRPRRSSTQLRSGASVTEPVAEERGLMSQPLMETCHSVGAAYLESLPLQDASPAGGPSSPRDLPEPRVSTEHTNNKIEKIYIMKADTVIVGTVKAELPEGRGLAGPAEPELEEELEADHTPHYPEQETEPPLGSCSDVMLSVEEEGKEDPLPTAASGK
The experiment in a line: flow cytometry, HDLM-2 cells. The essentials:
(§1)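 CD3×CD30 bispecific antibodies, 3-fold serial dilutions from 0.0046 to 10 μg/mL, incubated with 3×10⁴ SU-DHL-1 (ALCL) or HDLM-2 (HL) cells for 30 min at 4 °C, then secondary antibody 30 min at 4 °C. Live cells gated by FSC/SSC and TO-PRO-3 exclusion; binding curves fitted by four-parameter sigmoidal regression.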

The target of assay [3] is T2, human CD30. The experiment in a line: flow cytometry, SU-DHL-1 cells. The essentials: as §1
Assay [4] addresses T2, human CD30. The experiment in a line: flow cytometry, Expi293F cells transfected with human CD30. Here is the method: Cells (3×10⁴ cells/well) were incubated in polystyrene 96-well round-bottom plates (Greiner bio-one, cat. no. 650180) with serial dilutions of antibodies (ranging from 0.005 to 10 μg/mL in 3-fold dilution steps) in 100 μL staining buffer at 4° C. for 30 min. Experiments were performed in technical duplicate. After washing twice in staining buffer, cells were incubated in 50 μL secondary antibody at 4° C. for 30 min. As a secondary antibody, R-PE-conjugated goat-anti-human IgG (Jackson ImmunoResearch, UK; cat. no. 109⁻¹¹⁶-098) diluted 1:400 in staining buffer was used. Cells were washed twice in staining buffer, resuspended in 30 μL staining buffer containing 0.4% EDTA and analyzed on an iQue Screener (Intellicyt Corporation, USA). Binding curves were analyzed using non-linear regression (sigmoidal dose-response with variable slope) using GraphPad Prism V9.0.0 software (GraphPad Software, San Diego, CA, USA).

The target in assay [5] is T3, rhesus monkey (Macaca mulatta) CD30 (rhesus monkey, UniProt P28908 19-595 (human entry)).
T3 construct: also called mmCD30
T3 chain: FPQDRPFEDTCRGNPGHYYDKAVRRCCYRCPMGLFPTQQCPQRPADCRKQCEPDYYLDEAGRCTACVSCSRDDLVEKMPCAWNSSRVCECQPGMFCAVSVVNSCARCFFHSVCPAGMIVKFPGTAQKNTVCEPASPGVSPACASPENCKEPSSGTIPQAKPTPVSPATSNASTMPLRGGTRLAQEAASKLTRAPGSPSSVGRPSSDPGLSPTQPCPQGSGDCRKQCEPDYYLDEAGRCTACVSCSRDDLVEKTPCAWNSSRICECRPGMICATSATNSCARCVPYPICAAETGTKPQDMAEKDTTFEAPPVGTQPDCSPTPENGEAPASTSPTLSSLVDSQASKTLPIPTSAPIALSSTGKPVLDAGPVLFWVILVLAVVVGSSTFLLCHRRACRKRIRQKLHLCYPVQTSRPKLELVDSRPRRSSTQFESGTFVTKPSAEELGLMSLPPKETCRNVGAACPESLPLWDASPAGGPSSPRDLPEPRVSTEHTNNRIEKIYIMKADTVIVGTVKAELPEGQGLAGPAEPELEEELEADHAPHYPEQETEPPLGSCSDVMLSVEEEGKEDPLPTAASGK
Briefly: flow cytometry, Expi293F cells transfected with rhesus monkey CD30.

B1: bsG1-huCD3-FEALxb12-FERR (bispecific antibody, human IgG1, kappa, lambda)
heavy 1: not shown
light 1: not shown
heavy 2: QVQLVQSGAEVKKPGASVKVSCQASGYRFSNFVIHWVRQAPGQRFEWMGWINPYNGNKEFSAKFQDRVTFTADTSANTAYMELRSLRSADTAVYYCARVGPYSWDDSPQDNYYMDVWGKGTTVIVSSASTKGPSVFPLAPSSKSTSGGTAALGCLVKDYFPEPVTVSWNSGALTSGVHTFPAVLQSSGLYSLSSVVTVPSSSLGTQTYICNVNHKPSNTKVDKRVEPKSCDKTHTCPPCPAPEFERGPSVFLFPPKPKDTLMISRTPEVTCVVVDVSHEDPEVKFNWYVDGVEVHNAKTKPREEQYNSTYRVVSVLTVLHQDWLNGKEYKCKVSNKALPAPIEKTISKAKGQPREPQVYTLPPSREEMTKNQVSLTCLVKGFYPSDIAVEWESNGQPENNYKTTPPVLDSDGSFFLYSRLTVDKSRWQQGNVFSCSVMHEALHNHYTQKSLSLSPG
light 2: EIVLTQSPGTLSLSPGERATFSCRSSHSIRSRRVAWYQHKPGQAPRLVIHGVSNRASGISDRFSGSGSGTDFTLTITRVEPEDFALYYCQVYGASSYTFGQGTKLERKRTVAAPSVFIFPPSDEQLKSGTASVVCLLNNFYPREAKVQWKVDNALQSGNSQESVTEQDSKDSTYSLSSTLTLSKADYEKHKVYACEVTHQGLSSPVTKSFNRGEC
notes: Monovalent CD3 control antibody
Take B1: in assay [1], the binding result is on record as “no binding (tested: 0.0002 to 50 µg/mL)”.

B2: IgG1-CD30-T408-FEAR (antibody, V domains shown)
VH: QVQLQQPGAELVRPGASVKLSCKASGYTFTSYWINWVKQRPGQGLEWIGNIYPSDSYSNYNQKFKDKATLTVDKSSSTAYMQLSSPTSEDSAVYYCTLGSYWGQGTLVTVSA
VL: not shown
notes: Monospecific, bivalent parental antibody
For B2, the concentration for a half-maximal effect (EC50 (read off the curve)) with human CD30 [2] was roughly 1 µg/mL; with human CD30 [3], roughly 0.6 µg/mL; with human CD30 [4], roughly 0.2 µg/mL; in assay [5] it was roughly 0.4 µg/mL.
